Measured values from the supplement of paper PMC9112550, “Optimization of the antimicrobial peptide Bac7 by deep mutational scanning” (BMC Biology, 2022).

System: Escherichia coli TOP10
Assay: shrunken log2 fold change of peptide-encoding DNA abundance (4.5 h post-induction vs induction); higher = less antimicrobial activity (less host growth inhibition)
Conditions: time post-induction: 4.5 h; library: site-saturation at positions 5, 18, 19, 20
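Note: peptides expressed intracellularly from a pBAD plasmid library in pooled LB shake-flask culture, induced with 0.3% L-arabinose, DNA abundance read by NGS, three biological replicates, DESeq2 with apeglm shrinkage.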

Q: With RRIRARPPRLPRPRPRPTAPPRP as the sequence, how does the “shrunken log2 fold change” value read?
A: Its value is 0.8.

Q: RRIRHRPPRLPRPRPRPNTCPRP was tested. Which “shrunken log2 fold change” value did it give?
A: The value was -0.53.

Q: How did the “shrunken log2 fold change” value turn out when RRIRCRPPRLPRPRPRPSMAPRP was run?
A: Its value is -0.224.

Q: How did the “shrunken log2 fold change” value turn out when RRIRVRPPRLPRPRPRPHGLPRP was run?
A: The value was 0.0861.

Q: How did the “shrunken log2 fold change” value turn out when RRIRWRPPRLPRPRPRPARWPRP was run?
A: The value was 1.07.

Q: With RRIRYRPPRLPRPRPRPCFCPRP as the sequence, how does the “shrunken log2 fold change” value read?
A: Its value is -0.565.

Q: With RRIRSRPPRLPRPRPRPSTSPRP as the sequence, how does the “shrunken log2 fold change” value read?
A: Its value is -0.455.

Q: RRIRLRPPRLPRPRPRPWVTPRP was tested. Which “shrunken log2 fold change” value did it give?
A: The value was -0.145.

Q: Which “shrunken log2 fold change” value does the source give for RRIRDRPPRLPRPRPRPSFNPRP here?
A: Its value is -0.68.

Q: For RRIRARPPRLPRPRPRPNKGPRP, which “shrunken log2 fold change” value is on record?
A: Its value is -0.0254.

Q: How did the “shrunken log2 fold change” value turn out when RRIRKRPPRLPRPRPRPPHWPRP was run?
A: The value was 0.756.

Q: RRIRFRPPRLPRPRPRPELWPRP was tested. Which “shrunken log2 fold change” value did it give?
A: The value was 0.677.

Q: RRIRPRPPRLPRPRPRPWVYPRP was tested. Which “shrunken log2 fold change” value did it give?
A: Its value is -0.227.

Q: RRIRIRPPRLPRPRPRPQAWPRP was tested. Which “shrunken log2 fold change” value did it give?
A: Its value is 0.386.

Q: For RRIRMRPPRLPRPRPRPCGCPRP, which “shrunken log2 fold change” value is on record?
A: Its value is 0.0371.

Q: With RRIRCRPPRLPRPRPRPLYAPRP as the sequence, how does the “shrunken log2 fold change” value read?
A: The value was -0.3.

Q: How did the “shrunken log2 fold change” value turn out when RRIRERPPRLPRPRPRPKLPPRP was run?
A: Its value is 0.0983.

Q: With RRIRNRPPRLPRPRPRPEMGPRP as the sequence, how does the “shrunken log2 fold change” value read?
A: Its value is -0.0261.

Q: With RRIRYRPPRLPRPRPRPEEHPRP as the sequence, how does the “shrunken log2 fold change” value read?
A: The value was 0.0203.

Q: Which “shrunken log2 fold change” value does the source give for RRIRRRPPRLPRPRPRPMNQPRP here?
A: Its value is 0.0252.

Q: RRIRWRPPRLPRPRPRPAGKPRP was tested. Which “shrunken log2 fold change” value did it give?
A: Its value is 0.0305.

Q: RRIRFRPPRLPRPRPRPNVYPRP was tested. Which “shrunken log2 fold change” value did it give?
A: Its value is -0.558.

Q: RRIRFRPPRLPRPRPRPPGSPRP was tested. Which “shrunken log2 fold change” value did it give?
A: Its value is 0.238.

Q: With RRIRTRPPRLPRPRPRPNHQPRP as the sequence, how does the “shrunken log2 fold change” value read?
A: Its value is -0.35.

Q: RRIRHRPPRLPRPRPRPQLTPRP was tested. Which “shrunken log2 fold change” value did it give?
A: The value was -0.261.

Q: For RRIRGRPPRLPRPRPRPNTWPRP, which “shrunken log2 fold change” value is on record?
A: The value was 0.237.

Q: For RRIRIRPPRLPRPRPRPETDPRP, which “shrunken log2 fold change” value is on record?
A: Its value is -0.0362.

Q: How did the “shrunken log2 fold change” value turn out when RRIRVRPPRLPRPRPRPQSWPRP was run?
A: Its value is 0.256.

Q: With RRIRQRPPRLPRPRPRPAKEPRP as the sequence, how does the “shrunken log2 fold change” value read?
A: Its value is -0.0803.

Q: With RRIRNRPPRLPRPRPRPQMQPRP as the sequence, how does the “shrunken log2 fold change” value read?
A: The value was -0.0154.

Q: Which “shrunken log2 fold change” value does the source give for RRIRRRPPRLPRPRPRPSDIPRP here?
A: Its value is -1.08.

Q: Which “shrunken log2 fold change” value does the source give for RRIRMRPPRLPRPRPRPKMCPRP here?
A: Its value is 0.0261.

Q: How did the “shrunken log2 fold change” value turn out when RRIRQRPPRLPRPRPRPADAPRP was run?
A: Its value is 0.242.

Q: With RRIRQRPPRLPRPRPRPCASPRP as the sequence, how does the “shrunken log2 fold change” value read?
A: The value was -0.0156.

Q: How did the “shrunken log2 fold change” value turn out when RRIRCRPPRLPRPRPRPQYAPRP was run?
A: The value was -0.231.

Q: How did the “shrunken log2 fold change” value turn out when RRIRGRPPRLPRPRPRPIMVPRP was run?
A: Its value is -0.0212.

Q: How did the “shrunken log2 fold change” value turn out when RRIRMRPPRLPRPRPRPDDLPRP was run?
A: Its value is 2.58.

Q: RRIRWRPPRLPRPRPRPLSFPRP was tested. Which “shrunken log2 fold change” value did it give?
A: Its value is -0.0327.

Q: How did the “shrunken log2 fold change” value turn out when RRIRQRPPRLPRPRPRPESQPRP was run?
A: The value was -0.0174.

Q: With RRIRPRPPRLPRPRPRPCRHPRP as the sequence, how does the “shrunken log2 fold change” value read?
A: Its value is -0.0363.

Q: For RRIRCRPPRLPRPRPRPLATPRP, which “shrunken log2 fold change” value is on record?
A: The value was 0.146.

Q: Which “shrunken log2 fold change” value does the source give for RRIRFRPPRLPRPRPRPTKAPRP here?
A: Its value is 0.0916.

Q: RRIRFRPPRLPRPRPRPRVMPRP was tested. Which “shrunken log2 fold change” value did it give?
A: The value was 0.138.

Q: RRIRCRPPRLPRPRPRPFRYPRP was tested. Which “shrunken log2 fold change” value did it give?
A: Its value is -0.29.

Q: Which “shrunken log2 fold change” value does the source give for RRIRHRPPRLPRPRPRPWYGPRP here?
A: The value was -0.779.

Q: Which “shrunken log2 fold change” value does the source give for RRIRARPPRLPRPRPRPPITPRP here?
A: The value was 0.261.

Q: Which “shrunken log2 fold change” value does the source give for RRIRFRPPRLPRPRPRPGYDPRP here?
A: Its value is -0.292.

Q: With RRIRRRPPRLPRPRPRPAGLPRP as the sequence, how does the “shrunken log2 fold change” value read?
A: The value was 0.153.

Q: Which “shrunken log2 fold change” value does the source give for RRIRGRPPRLPRPRPRPDYKPRP here?
A: Its value is -0.0972.

Q: For RRIRQRPPRLPRPRPRPYYVPRP, which “shrunken log2 fold change” value is on record?
A: The value was -0.0108.

Q: With RRIRTRPPRLPRPRPRPHTPPRP as the sequence, how does the “shrunken log2 fold change” value read?
A: Its value is 0.0178.

Q: With RRIRRRPPRLPRPRPRPNFDPRP as the sequence, how does the “shrunken log2 fold change” value read?
A: The value was -0.102.

Q: How did the “shrunken log2 fold change” value turn out when RRIRIRPPRLPRPRPRPDWYPRP was run?
A: Its value is -0.842.

Q: Which “shrunken log2 fold change” value does the source give for RRIRFRPPRLPRPRPRPNEMPRP here?
A: Its value is -0.0729.

Q: With RRIRKRPPRLPRPRPRPSGPPRP as the sequence, how does the “shrunken log2 fold change” value read?
A: The value was 0.0366.

Q: RRIRARPPRLPRPRPRPAQRPRP was tested. Which “shrunken log2 fold change” value did it give?
A: The value was 0.695.

Q: For RRIRMRPPRLPRPRPRPTKFPRP, which “shrunken log2 fold change” value is on record?
A: Its value is 0.339.

Q: With RRIRVRPPRLPRPRPRPNMQPRP as the sequence, how does the “shrunken log2 fold change” value read?
A: Its value is -0.33.

Q: With RRIRIRPPRLPRPRPRPHQAPRP as the sequence, how does the “shrunken log2 fold change” value read?
A: The value was -0.0342.

Q: RRIRCRPPRLPRPRPRPRHWPRP was tested. Which “shrunken log2 fold change” value did it give?
A: The value was 0.261.

Q: With RRIRLRPPRLPRPRPRPAFKPRP as the sequence, how does the “shrunken log2 fold change” value read?
A: Its value is -0.195.

Q: RRIRNRPPRLPRPRPRPCSDPRP was tested. Which “shrunken log2 fold change” value did it give?
A: The value was 0.0121.

Q: RRIRLRPPRLPRPRPRPFMPPRP was tested. Which “shrunken log2 fold change” value did it give?
A: The value was -0.195.

Q: For RRIRHRPPRLPRPRPRPGFDPRP, which “shrunken log2 fold change” value is on record?
A: Its value is 0.105.

Q: With RRIRARPPRLPRPRPRPMDTPRP as the sequence, how does the “shrunken log2 fold change” value read?
A: Its value is 0.143.

Q: RRIRMRPPRLPRPRPRPRCKPRP was tested. Which “shrunken log2 fold change” value did it give?
A: Its value is 0.198.

Q: Which “shrunken log2 fold change” value does the source give for RRIRFRPPRLPRPRPRPWLTPRP here?
A: The value was -0.0554.

Q: Which “shrunken log2 fold change” value does the source give for RRIRNRPPRLPRPRPRPLHAPRP here?
A: Its value is -0.0128.

Q: With RRIRDRPPRLPRPRPRPCNSPRP as the sequence, how does the “shrunken log2 fold change” value read?
A: The value was -0.0276.

Q: How did the “shrunken log2 fold change” value turn out when RRIRDRPPRLPRPRPRPANIPRP was run?
A: The value was -0.114.

Q: With RRIRNRPPRLPRPRPRPGVKPRP as the sequence, how does the “shrunken log2 fold change” value read?
A: The value was -0.117.

Q: How did the “shrunken log2 fold change” value turn out when RRIRSRPPRLPRPRPRPAWQPRP was run?
A: Its value is 0.0367.

Q: How did the “shrunken log2 fold change” value turn out when RRIRLRPPRLPRPRPRPFEFPRP was run?
A: Its value is -0.119.

Q: RRIRNRPPRLPRPRPRPKDTPRP was tested. Which “shrunken log2 fold change” value did it give?
A: The value was -0.018.

Q: With RRIRMRPPRLPRPRPRPMWVPRP as the sequence, how does the “shrunken log2 fold change” value read?
A: The value was 0.0332.
